Data set [1] concerns the target CZA97.012 SOSIP.664 trimer (HIV-1, Clade C, clone CZA97.012 (97ZA.012)).
For data set [2] the target is unchanged. Put plainly: SPR. On the technique in general: SPR reads the build-up and loss of mass on a sensor chip optically.
The target in data set [3] is CZA97.012 SOSIP.664 trimer, His-tagged, 2G12-affinity- and then SEC-purified (HIV-1 (Clade C, clone CZA97.012)). Put plainly: SPR.
For data set [4] the following is noted: N-glycosylation at N411.
The target in data set [5] is CZA97.012 SOSIP.664 trimer (HIV-1, Clade C, clone CZA97.012 (97ZA.012)). In words: cryo-EM structure.
The target is the same in data set [6]. In words: negative-stain electron microscopy; trimer purified by 2G12-, PGT145- or PGT151-affinity chromatography and then SEC, ~0.02 mg/mL, 2% uranyl formate, 2D class averages.
Data set [7] shares this target. This is another data set of the same source.

3BNC117 Fab displayed an IC50 of neutralization of CZA97.012 pseudovirus (Env on virions) by 3BNC117 IgG, TZM-bl assay in data set [1] of 0.32 µg/mL. Also, in data set [2], the stoichiometry N – broadly, a count of units in the complex or per binding partner – came to 2.8. In addition, in data set [3], the Kd (commonly a measure of binding affinity in units of concentration) stood at 15 nM; the koff (in general, a measure of how fast the partners let go of each other) turned out to be 0.00014 s⁻¹; the kon (as a rule, the second-order rate constant of association) amounted to 9700 M⁻¹ s⁻¹; the stoichiometry N turned out to be 2.7.
Turning to “CZA97.012 Env, D411N mutant: D411N (PNGS knock-in) vs parental; neutralization by autologous rabbit sera 2082 and 2084”, in data set [4], the other entry was “decreases”.
On the same count and under the same terms, the result for “CZA97.012 Env, D411N mutant: D411N (PNGS knock-in) vs parental; neutralization by autologous rabbit serum 2086” reads “decreases”; that for “CZA97.012 Env, D411N mutant: D411N (PNGS knock-in) vs parental; neutralization by bNAbs”, “no change”.
With CZA97.012 SOSIP.664 trimer (complex), the stoichiometry N in data set [5] and in data set [6] was 3 in each case.

B1: PGT145 (antibody, V domains shown)
VH: QVQLVQSGAEVKKPGSSVKVSCKASGNSFSNHDVHWVRQATGQGLEWMGWMSHEGDKTGLAQKFQGRVTITRDSGASTVYMELRGLTADDTAIYYCLTGSKHRLRDYFLYNEYGPNYEEWGDYLATLDVWGHGTAVTVSS
VL: EVVITQSPLFLPVTPGEAASLSCKCSHSLQHSTGANYLAWYLQRPGQTPRLLIHLATHRASGVPDRFSGSGSGTDFTLKISRVESDDVGTYYCMQGLHSPWTFGQGTKVEIK
As for B1, the IC50 of neutralization of CZA97.012 pseudovirus (Env on virions) by PGT145 IgG, TZM-bl assay in data set [7] is 7.6 µg/mL.

Source of the values: article PMC10635575.
